For six sequences, Kd and IC50 results are on record in the Immune Epitope Database (IEDB).

The target in experiment [1] is HLA-A*01:01. In words: IEDB peptide-MHC binding, purified MHC/competitive/radioactivity; filed as Kd, often an IC50 or EC50 that approximates it; ≥ and ≤ were set here for values at or beyond the usual limits of such assays.
Experiment [2] has as its target HLA-A*03:01. Described as above. The following applies: source organism: Homo sapiens.
The target of experiment [3] is HLA-B*07:02. Described as above. The note with it: source organism: Homo sapiens.
In experiment [4] the target is HLA-A*02:01. In words: IEDB peptide-MHC binding, purified MHC/competitive/radioactivity; ≥ and ≤ were set here for values at or beyond the usual limits of such assays. The note with it: source organism: Homo sapiens.
For experiment [5], the target named is HLA-A*03:01. The experiment is described as above. The following applies: source organism: Homo sapiens.
The target of experiment [6] is HLA-B*07:02. Described as above. The note with it: source organism: Homo sapiens.

Where only a bound is given, the exact number is not on record here.

Turning to LLDVPTAAV, the dissociation constant (Kd) – broadly, the concentration at which binding is half-saturated – in experiment [1] (source organism: Homo sapiens) is 4.31 µM; in experiment [2] it was at least 5 µM; in experiment [3], at least 5 µM.

For the sequence SLLPAIVEL, the IC50 – broadly, the point on the concentration scale where inhibition reaches its midpoint – in experiment [4] stood at 0.024 µM. Also, the dissociation constant (Kd) in experiment [1] (source organism: Homo sapiens), in experiment [2] and in experiment [3] was at least 5 µM throughout.

As to YLLPAIVHI, the equilibrium dissociation constant (Kd) in experiment [1] (source organism: Homo sapiens), in experiment [2] and in experiment [3] was at least 5 µM in each case.

With EADPTGHSY, the dissociation constant Kd in experiment [2] and in experiment [3] was at least 5 µM throughout.

As for FLPSDFFPSV, the dissociation constant Kd in experiment [1] (source organism: Hepatitis B virus subtype adyw) is at least 5 µM.

Take RVMAPRALL: the IC50 was found to be 0.905 µM in experiment [5] and 0.0046 µM in experiment [6]. The Kd in experiment [1] (source organism: Homo sapiens) is at least 5 µM.
